Measured values taken from paper PMC8406365 (Acta Biochimica et Biophysica Sinica, 2021).

Molecular target: SENP3 (endogenous, LO2 hepatocytes) (human (endogenous in LO2), UniProt Q9H4L4 1-574)
Experiment: FRET or BRET

SENP3 (endogenous, LO2 hepatocytes), sequence (Q9H4L4 whole entry): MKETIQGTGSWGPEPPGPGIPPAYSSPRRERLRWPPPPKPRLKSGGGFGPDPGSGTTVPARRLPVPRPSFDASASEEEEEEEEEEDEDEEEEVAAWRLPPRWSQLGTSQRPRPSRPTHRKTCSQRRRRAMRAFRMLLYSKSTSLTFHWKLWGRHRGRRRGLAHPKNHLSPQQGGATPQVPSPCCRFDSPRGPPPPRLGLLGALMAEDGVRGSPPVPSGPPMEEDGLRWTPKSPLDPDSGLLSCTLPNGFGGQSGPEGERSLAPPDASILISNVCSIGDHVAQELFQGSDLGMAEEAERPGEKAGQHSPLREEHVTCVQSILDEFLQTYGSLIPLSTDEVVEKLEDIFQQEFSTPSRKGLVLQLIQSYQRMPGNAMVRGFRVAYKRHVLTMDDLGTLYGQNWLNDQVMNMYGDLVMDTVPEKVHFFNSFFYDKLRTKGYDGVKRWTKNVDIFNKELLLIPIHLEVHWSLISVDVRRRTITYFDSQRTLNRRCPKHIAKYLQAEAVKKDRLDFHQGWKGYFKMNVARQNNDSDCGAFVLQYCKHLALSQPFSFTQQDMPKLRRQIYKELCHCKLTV

B1: ATP synthase subunit (ATP5F1A) (natural protein, human (endogenous in LO2), UniProt P25705 44-553, looked up)
chain: QKTGTAEMSSILEERILGADTSVDLEETGRVLSIGDGIARVHGLRNVQAEEMVEFSSGLKGMSLNLEPDNVGVVVFGNDKLIKEGDIVKRTGAIVDVPVGEELLGRVVDALGNAIDGKGPIGSKTRRRVGLKAPGIIPRISVREPMQTGIKAVDSLVPIGRGQRELIIGDRQTGKTSIAIDTIINQKRFNDGSDEKKKLYCIYVAIGQKRSTVAQLVKRLTDADAMKYTIVVSATASDAAPLQYLAPYSGCSMGEYFRDNGKHALIIYDDLSKQAVAYRQMSLLLRRPPGREAYPGDVFYLHSRLLERAAKMNDAFGGGSLTALPVIETQAGDVSAYIPTNVISITDGQIFLETELFYKGIRPAINVGLSVSRVGSAAQTRAMKQVAGTMKLELAQYREVAAFAQFGSDLDAATQQLLSRGVRLTELLKQGQYSPMAIEEQVAVIYAGVRGYLDKLEPSKITKFENAFLSHVVSQHQALLGTIRADGKISEQSDAKLKEIVTNFLAGFEA
FRET efficiency: ~25%
